Experimental data published in article doi:10.1101/188136 (bioRxiv, 2017).

Target: the molecule itself
Experiment: crystal structure

B1: BrlR (transcriptional regulator BrlR from Pseudomonas aeruginosa) (natural protein, UniProt Q9HUT5 1-270, looked up)
chain: MLTIGQLARIFEISTKTLRHYDAIGLFVPARTGSDNGYRYYQPEQIEQLSRILALRRLDVPLEAIDRLKRDGALDDPQRLRHFLQRHQHTLREEISARQRLLAELDRTLATLAHWRIRNMHARIVERPAFSVVGMEYFGSAPGDTIGQLWERFIPREHEIAGKHDPEVSYGICAQQPNGEFHYVAGFEVQEGWPVPEGMVRFQVPAQKYAVFTHKGTAPQIAESFQAIYSHLLAERGLEPKAGVDFEYYDQRFRGPLDPNSQVDLYIPIY
- stoichiometry N: 4
